According to patent US20060115839A1 (published 2006):

Target: endogenous histone H3 in U2OS cells (human, UniProt P68431 2-136)
Assay: formaldehyde crosslinking in irradiated U2OS cells, nickel bead capture, H3 immunoblot (FIG. 3g)
Experimental: Non-transfected U2OS osteosarcoma cells and transfected U2OS cells expressing His-tagged GFP-53BP1 fusion proteins with wild-type or mutant (Asp1521Arg) 53BP1 sequences were pre-extracted with Triton-X100 in situ 15 min after irradiation and then treated with formaldehyde to crosslink interacting proteins. His-tagged GFP-53BP1 was then affinity-purified on nickel-coated beads and bound histone H3 was detected by immunoblotting after the crosslinks were reversed by boiling. Histone H3 was captured on beads incubated with extracts from His-tagged GFP-wild-type 53BP1 expressing cells treated with formaldehyde, but not on beads incubated with extracts from cells that were mock-crosslinked or that were expressing the Asp1521Arg mutant protein (FIG. 3g). Further, the crosslinking was specific for histone H3, because histone H2A, although present in the Triton-X100 insoluble material, was not captured by the beads (data not shown).
Proteins were crosslinked with formaldehyde³⁰. Parental U2OS cells and U2OS cells expressing N-terminally His-tagged GFP-53BP1 fusion proteins containing residues 1220-1711 of 53BP1 were exposed to 9 Gy IR. […] Histone H3 was detected by immunoblotting after the crosslinks were reversed by boiling.

B1: N-terminally His-tagged GFP-53BP1 fusion protein containing residues 1220-1711 of 53BP1 with Asp1521Arg (other)
chain: QGEEEFDMPQPPHGHVLHRHMRTIREVRTLVTRVITDVYYVDGTEVERKVTEETEEPIVECQECETEVSPSQTGGSSGDLGDISSFSSKASSLHRTSSGTSLSAMHSSGSSGKGAGPLRGKTSGTEPADFALPSSRGGPGKLSPRKGVSQTGTPVCEEDGDAGLGIRQGGKAPVTPRGRGRRGRPPSRTTGTRETAVPGPLGIEDISPNLSPDDKSFSRVVPRVPDSTRRTDVGAGALRRSDSPEIPFQAAAGPSDGLDASSPGNSFVGLRVVAKWSSNGYFYSGKITRDVGAGKYKLLFDRGYECDVLGKDILLCDPIPLDTEVTALSEDEYFSAGVVKGHRKESGELYYSIEKEGQRKWYKRMAVILSLEQGNRLREQYGLGPYEAVTPLTKAADISLDNLVEGKRKRRSNVSSPATPTASSSSSTTPTRKITESPRASMGVLSGKRKLITSEEERSPAKRGRKSATVKPGAVGAGEFVSPCESGDNTGE
notes: Expressed in U2OS cells; crosslinked in situ with formaldehyde; also called His-tagged GFP-53BP1 D1521R; Asp1521Arg mutant protein; not shown: N-terminal His tag and GFP, with any linkers
B1: no binding.
